Reference: patent publication US6627200

Target: CD137 ligand expressed by the monocytes (human) (UniProt P41273)
Assay: cell-based or functional assay

Chain of UniProt P41273 (P41273 whole entry): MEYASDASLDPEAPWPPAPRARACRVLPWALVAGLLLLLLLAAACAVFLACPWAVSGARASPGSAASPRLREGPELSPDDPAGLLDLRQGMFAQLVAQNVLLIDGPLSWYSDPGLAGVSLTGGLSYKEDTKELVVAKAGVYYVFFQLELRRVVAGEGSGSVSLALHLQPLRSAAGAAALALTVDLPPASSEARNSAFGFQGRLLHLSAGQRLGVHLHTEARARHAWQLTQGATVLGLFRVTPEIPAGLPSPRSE

## Recombinant CD137-Fc protein, consisting of the extracellular domain of human CD137 and the constant domain of human immunoglobulin G1 (Fc) (from UniProt Q07011 18-186) (Fc fusion)
  3H-thymidine incorporation of peripheral monocytes on immobilized CD137-Fc, against control cells: > 30 fold
